Experimental findings from US20030068675, “Position dependent recognition of GNN nucleotide triplets by zinc fingers” (published 2003) are described below.

What all share (assay): EMSA
Settings in all cases: tags: MBP fusion

One series deals with ZFP SBS#1134 (synthetic, UniProt P08047). In outline:
(§1)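 Purified ZFP was titrated against labeled double-stranded target (1 nM or lower, at least 10-fold below expected Kd) carrying the natural binding site with flanks. Binding buffer was 10 mM Tris pH 7.5, 100 mM KCl, 1 mM MgCl2, 0.1 mM ZnCl2, 5 mM DTT, 10% glycerol, 0.02% BSA, with equilibration for at least 45 min. Bound and free target were separated on a 10% polyacrylamide gel.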

For the next series, the target named is T1, ZFP SBS#472 (synthetic).
T1 chain: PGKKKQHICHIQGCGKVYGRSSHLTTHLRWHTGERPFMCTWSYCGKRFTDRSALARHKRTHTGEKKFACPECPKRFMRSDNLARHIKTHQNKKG
The method in brief: as §1

The target of the next series is T2, ZFP SBS#1152 (synthetic).
T2 chain: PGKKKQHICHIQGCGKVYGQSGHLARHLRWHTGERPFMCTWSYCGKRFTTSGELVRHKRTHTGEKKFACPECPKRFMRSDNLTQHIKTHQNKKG
In outline: as §1

For another series, the target named is T3, ZFP SBS#1153 (synthetic).
T3 chain: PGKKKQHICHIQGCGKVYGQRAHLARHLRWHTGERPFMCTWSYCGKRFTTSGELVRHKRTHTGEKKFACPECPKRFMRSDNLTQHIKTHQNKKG
In outline: as §1

The target of a further series is T4, ZFP SBS#1100 (synthetic).
T4 chain: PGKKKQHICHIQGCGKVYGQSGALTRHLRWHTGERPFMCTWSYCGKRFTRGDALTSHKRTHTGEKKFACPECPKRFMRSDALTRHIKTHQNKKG
In outline: as §1

In the next series the target is T5, ZFP SBS#1162 (synthetic).
T5 chain: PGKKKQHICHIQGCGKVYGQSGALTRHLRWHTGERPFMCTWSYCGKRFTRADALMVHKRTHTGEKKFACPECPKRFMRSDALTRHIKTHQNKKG
In outline: as §1

Another series deals with T6, ZFP SBS#1148 (synthetic).
T6 chain: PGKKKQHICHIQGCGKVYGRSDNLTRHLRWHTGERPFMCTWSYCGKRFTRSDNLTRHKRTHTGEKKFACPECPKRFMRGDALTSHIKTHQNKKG
The method in brief:
as §1

The target in the next series is ZFP SBS#1149 (synthetic). The method in brief: as §1
The target of a further series is ZFP SBS#1158 (synthetic). In outline:
as §1

Another series has as its target T7, ZFP SBS#1159 (synthetic).
T7 chain: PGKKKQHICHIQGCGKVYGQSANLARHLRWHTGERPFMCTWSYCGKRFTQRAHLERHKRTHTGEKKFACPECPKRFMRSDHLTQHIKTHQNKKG
In outline:
as §1

The target of a further series is T8, ZFP SBS#1132 (synthetic, UniProt P08047).
T8 chain: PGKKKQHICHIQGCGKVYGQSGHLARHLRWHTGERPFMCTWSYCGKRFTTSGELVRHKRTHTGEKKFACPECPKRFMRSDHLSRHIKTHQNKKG
In outline: as §1

The target of the next series is T9, ZFP SBS#1133 (synthetic, UniProt P08047).
T9 chain: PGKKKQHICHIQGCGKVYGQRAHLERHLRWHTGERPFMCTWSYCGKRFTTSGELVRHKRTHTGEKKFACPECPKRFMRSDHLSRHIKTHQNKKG
The method in brief:
as §1

For the next series, the target named is T10, ZFP SBS#1154 (synthetic, UniProt P08047).
T10 chain: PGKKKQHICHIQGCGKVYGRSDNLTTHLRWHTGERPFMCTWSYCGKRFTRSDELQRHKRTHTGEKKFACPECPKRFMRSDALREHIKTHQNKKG
In outline: as §1

In a further series the target is ZFP SBS#1168 (synthetic). In outline: as §1
The next series concerns the target T11, ZFP SBS#1090 (synthetic, UniProt P08047).
T11 chain: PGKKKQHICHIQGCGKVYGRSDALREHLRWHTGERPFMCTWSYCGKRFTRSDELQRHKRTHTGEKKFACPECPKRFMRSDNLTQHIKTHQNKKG
In outline: as §1

A further series has as its target T12, ZFP SBS#1124 (synthetic).
T12 chain: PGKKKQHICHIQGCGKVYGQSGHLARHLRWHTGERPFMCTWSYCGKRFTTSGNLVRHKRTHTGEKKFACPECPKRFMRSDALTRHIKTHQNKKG
In outline: as §1

The target of a further series is T13, ZFP SBS#1160 (synthetic).
T13 chain: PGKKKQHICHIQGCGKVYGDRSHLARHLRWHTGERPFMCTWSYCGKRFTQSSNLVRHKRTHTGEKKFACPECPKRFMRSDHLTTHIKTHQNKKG
The method in brief: as §1

The target of another series is ZFP SBS#1135 (synthetic, UniProt P08047). The method in brief:
as §1

Another series concerns the target ZFP SBS#259 (synthetic). The method in brief: as §1
A further series has as its target ZFP SBS#477 (synthetic). In outline:
as §1

Another series deals with ZFP SBS#478 (synthetic, UniProt P08047). In outline: as §1
In another series the target is ZFP SBS#476 (synthetic, UniProt P08047). The method in brief: as §1
For the next series, the target named is ZFP SBS#1138 (synthetic). The method in brief: as §1
Sequence of ZFP SBS#1138 (synthetic) (chain, as listed by the source): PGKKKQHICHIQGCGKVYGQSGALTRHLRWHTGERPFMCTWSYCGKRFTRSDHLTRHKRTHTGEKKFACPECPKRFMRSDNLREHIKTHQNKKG
The target of a further series is T14, ZFP SBS#1091 (synthetic).
T14 chain: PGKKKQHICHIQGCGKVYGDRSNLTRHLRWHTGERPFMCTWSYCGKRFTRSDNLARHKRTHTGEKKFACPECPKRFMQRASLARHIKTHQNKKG
The method in brief: as §1

A further series has as its target T15, ZFP SBS#1169 (synthetic).
T15 chain: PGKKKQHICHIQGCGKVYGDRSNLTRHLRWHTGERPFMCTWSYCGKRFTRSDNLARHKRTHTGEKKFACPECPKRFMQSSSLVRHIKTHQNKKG
In outline: as §1

The next series deals with T16, ZFP SBS#1130 (synthetic).
T16 chain: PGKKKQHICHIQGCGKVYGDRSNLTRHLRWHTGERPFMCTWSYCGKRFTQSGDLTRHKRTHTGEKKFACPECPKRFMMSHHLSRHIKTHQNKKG
In outline: as §1

The next series concerns the target ZFP SBS#1137 (synthetic). In outline: as §1
A further series has as its target T17, ZFP SBS#1136 (synthetic).
T17 chain: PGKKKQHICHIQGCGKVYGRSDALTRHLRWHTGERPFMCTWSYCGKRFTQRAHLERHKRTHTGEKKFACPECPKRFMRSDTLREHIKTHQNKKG
The method in brief: as §1

Another series concerns the target ZFP SBS#1165 (synthetic). The method in brief:
as §1

A further series addresses ZFP SBS#1167 (synthetic). In outline:
as §1

For another series, the target named is ZFP SBS#1166 (synthetic). In outline: as §1
In another series the target is T18, ZFP SBS#1161 (synthetic).
T18 chain: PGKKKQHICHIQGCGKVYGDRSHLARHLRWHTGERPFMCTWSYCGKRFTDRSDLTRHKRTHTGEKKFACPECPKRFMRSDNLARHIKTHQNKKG
In outline:
as §1

In the next series the target is T19, ZFP SBS#1163 (synthetic).
T19 chain: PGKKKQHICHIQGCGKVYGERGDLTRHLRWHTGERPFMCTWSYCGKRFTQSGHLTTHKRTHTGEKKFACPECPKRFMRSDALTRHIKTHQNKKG
The method in brief:
as §1

In another series the target is T20, ZFP SBS#1164 (synthetic).
T20 chain: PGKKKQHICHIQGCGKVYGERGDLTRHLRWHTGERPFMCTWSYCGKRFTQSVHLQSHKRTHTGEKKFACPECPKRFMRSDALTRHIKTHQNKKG
In outline: as §1

B1: TGGGGGTGG (dsDNA)
DNA 1: TGGGGGTGG
DNA 2: CCACCCCCA
For orientation: Kd means a measure of binding affinity in units of concentration. In the case of B1, binding in the series with ZFP SBS#1134 was characterised by a dissociation constant (Kd) of 0.067 nM.

B2: GAGGTCTGGA (dsDNA)
DNA 1: GAGGTCTGGA
DNA 2: TCCAGACCTC
In the series with ZFP SBS#472, B2 showed a Kd of 80 nM.

B3: AAGGCTGGA (dsDNA)
DNA 1: AAGGCTGGA
DNA 2: TCCAGCCTT
Consider B3, for which the results for the Kd with ZFP SBS#1152 and with ZFP SBS#1153 were 1.6 nM and 8.2 nM, respectively.

B4: GTGTTGGTA (dsDNA)
DNA 1: GTGTTGGTA
DNA 2: TACCAACAC
Turning to B4, the Kd with ZFP SBS#1100 came out at 1.4 nM; with ZFP SBS#1162, 0.465 nM.

B5: TTGGAGGAG (dsDNA)
DNA 1: TTGGAGGAG
DNA 2: CTCCTCCAA
As to B5, the Kd with ZFP SBS#1148 is 0.006 nM; with ZFP SBS#1149 it was 0.004 nM.

B6: AGGGGAGAA (dsDNA)
DNA 1: AGGGGAGAA
DNA 2: TTCTCCCCT
Turning to B6, the results for the Kd with ZFP SBS#1158 and with ZFP SBS#1159 were 0.1 nM and 0.555 nM, respectively.

B7: GGGGCTGGA (dsDNA)
DNA 1: GGGGCTGGA
DNA 2: TCCAGCCCC
As to B7, the equilibrium dissociation constant (Kd) in the series with ZFP SBS#1132 came to 0.055 nM; with ZFP SBS#1133, 0.5 nM.

B8: CTGGCGTAG (dsDNA)
DNA 1: CTGGCGTAG
DNA 2: CTACGCCAG
The molecule B8 had a Kd with ZFP SBS#1154 of 1.04 nM.

B9: AAGGCGCTG (dsDNA)
DNA 1: AAGGCGCTG
DNA 2: CAGCGCCTT
B9: the results for the Kd in the series with ZFP SBS#1168 and with ZFP SBS#1090 were 2.8 nM and 30.3 nM, respectively.

B10: GTGGATGGA (dsDNA)
DNA 1: GTGGATGGA
DNA 2: TCCATCCAC
In the series with ZFP SBS#1124, B10 had a Kd of 0.101 nM.

B11: TGGGAAGGC (dsDNA)
DNA 1: TGGGAAGGC
DNA 2: GCCTTCCCA
Turning to B11, in the series with ZFP SBS#1160, binding was characterised by a dissociation constant (Kd) of 0.415 nM.

B12: GCGGCGGGG (dsDNA)
DNA 1: GCGGCGGGG
DNA 2: CCCCGCCGC
As for B12, in the series with ZFP SBS#1135, the Kd is 0.025 nM.

B13: GCAGAGGAG (dsDNA)
DNA 1: GCAGAGGAG
DNA 2: CTCCTCTGC
For the molecule B13, in the series with ZFP SBS#259, binding was put at a Kd of 250 nM.

B14: GGAGAGGATG (dsDNA)
DNA 1: GGAGAGGATG
DNA 2: CATCCTCTCC
With B14, the Kd with ZFP SBS#477 was 100 nM; with ZFP SBS#478, 60 nM; in the series with ZFP SBS#476 it was 80 nM.

B15: CAGGGGGTA (dsDNA)
DNA 1: CAGGGGGTA
DNA 2: TACCCCCTG
For the molecule B15, in the series with ZFP SBS#1138, the dissociation constant (Kd) was 0.027 nM.

B16: GTAGAGGAC (dsDNA)
DNA 1: GTAGAGGAC
DNA 2: GTCCTCTAC
Take B16: the Kd came to 0.085 nM with ZFP SBS#1091 and 0.053 nM in the series with ZFP SBS#1169.

B17: GGTGCAGAC (dsDNA)
DNA 1: GGTGCAGAC
DNA 2: GTCTGCACC
Consider B17, for which binding with ZFP SBS#1130 was characterised by a dissociation constant (Kd) of 0.1 nM.

B18: CCGGGAGTG (dsDNA)
DNA 1: CCGGGAGTG
DNA 2: CACTCCCGG
Turning to B18, the Kd with ZFP SBS#1137 amounted to 0.085 nM; with ZFP SBS#1136, 0.225 nM.

B19: GCGAAGGTG (dsDNA)
DNA 1: GCGAAGGTG
DNA 2: CACCTTCGC
B19: the Kd with ZFP SBS#1165 is 1.4 nM; in the series with ZFP SBS#1167, 0.95 nM; with ZFP SBS#1166 it was 0.195 nM.

B20: GAGGCCGGC (dsDNA)
DNA 1: GAGGCCGGC
DNA 2: GCCGGCCTC
In turn, B20 registered a Kd with ZFP SBS#1161 of 0.45 nM.

B21: GTGTGAGCC (dsDNA)
DNA 1: GTGTGAGCC
DNA 2: GGCTCACAC
For B21, the Kd with ZFP SBS#1163 amounted to 1.45 nM; with ZFP SBS#1164, 15.4 nM.
